The values below come from publication PMC12204359 (2025).

As usually defined, the Kd is a measure of binding affinity in units of concentration. Low readings indicate tighter binding, high ones weaker binding. By koff is commonly meant a measure of how fast the partners let go of each other. High values mean fast dissociation, low ones slow dissociation.

The chains are these.
B1: SP4D (peptide)
chain: KESALRKXDLYXKFDPLLRDS
modifications: N-terminal FAM; X557 and X561 are (S)-2-(4-pentenyl)alanine joined as i,i+4 hydrocarbon staple; staple position and limits inferred from Opt SP TACC3 (KESALRK*ELL*…), exact sequence only in Fig 3A
B2: clathrin heavy chain minimal ankle region (CHC^ankle, aa 358–574) (domain or fragment)
chain: AGAEELFARKFNALFAQGNYSEAAKVAANAPKGILRTPDTIRRFQSVPAQPGQTSPLLQYFGILLDQGQLNKYESLELCRPVLQQGRKQLLEKWLKEDKLECSEELGDLVKSVDPTLALSVYLRANVPNKVIQCFAETGQVQKIVLYAKKVGYTPDWIFLLRNVMRISPDQGQQFAQMLVQDEEPLADITQIVDVFMEYNLIQQCTAFLLDALKNNR
B3: K507A-CHC^ankle (domain or fragment)
chain: B2 chain with K150A
B4: biotinylated Avi-tagged ankle region of clathrin (aa 358–574) (domain or fragment)
chain: B2 chain
modifications: biotin
B5: Opt SP TACC3 (designed binder)
chain: {FAM}-KESALRKLELLLEFDPLFRDS
modifications: staple (positions not given here); not fully specified (residues 8, 12, bridges); also: (S)-2-(4-pentenyl)alanine at 557 and 561 not placed in the given letters

Test [1] has as its target B3. In words: FP.
In test [2] the target is B2. The experiment in a line: FP.
Test [3] has as its target Opt P6 (S558D). The experiment in a line: FP.
Test [4] deals with Opt P7 (S558E). The experiment in a line: FP.
In test [5] the target is Opt P2 (S558E). In words: FP.
Test [6] has as its target Opt P7 (pS558). In words: FP.
Test [7] addresses Opt P3 (S558E). The experiment in a line: FP.
For test [8], the target named is Opt P1 (pS558). In words: FP.
The target in test [9] is Opt P5 (S558E). The experiment in a line: FP.
Test [10] deals with Opt P9 (pS558). In words: FP.
In test [11] the target is Opt P5 (pS558). The experiment in a line: FP.
For test [12], the target named is Opt P3 (S558D). In words: FP.
The target in test [13] is Opt P1 (S558D). The experiment in a line: FP.
Test [14] deals with Opt P3 (pS558). In words: FP.
The target of test [15] is Opt P5 (S558D). In words: FP.
The target of test [16] is Opt P8 (S558E). In words: FP.
The target of test [17] is Opt P2 (pS558). The experiment in a line: FP.
Test [18] has as its target Opt P4 (pS558). The experiment in a line: FP.
The target in test [19] is Opt P9 (S558E). In words: FP.
The target in test [20] is Opt P4 (S558E). In words: FP.
Test [21] concerns the target Opt P4 (S558D). The experiment in a line: FP.
Test [22] addresses Opt P9 (S558D). In words: FP.
For test [23], the target named is Opt P8 (pS558). In words: FP.
For test [24], the target named is Opt P2 (S558D). The experiment in a line: FP.
Test [25] addresses Opt P7 (S558D). The experiment in a line: FP.
For test [26], the target named is Opt P6 (pS558). The experiment in a line: FP.
Test [27] concerns the target Opt P8 (S558D). In words: FP.
For test [28], the target named is Opt P1 (S558E). In words: FP.
Test [29] addresses Opt P6 (S558E). In words: FP.
The target in test [30] is T1, SP4E (human, UniProt Q9Y6A5, two (S)-2-(4-pentenyl)alanine, stapled; FAM on the N-terminus). In words: FP.
The target of test [31] is P2. In words: FP.
Test [32] concerns the target SP3E. The experiment in a line: FP.
The target in test [33] is SP2. In words: FP.
For test [34], the target named is SP6D. In words: FP.
Test [35] concerns the target SP1. The experiment in a line: FP.
Test [36] deals with SP3D. In words: FP.
Test [37] has as its target SP6E. The experiment in a line: FP.
Test [38] concerns the target P1. In words: FP.
Test [39] has as its target T1, SP4E. In words: SPR. On the technique in general: Surface plasmon resonance follows binding to a sensor surface in real time, without labels.
Test [40] deals with B2. The experiment in a line: FP.
Test [41] has as its target B4. In words: SPR.
Test [42] deals with B4. In words: SPR.
Test [43] deals with B3. In words: FP. The source holds these as a separate data set.

Changes are numbered by the printed parent chain. Names and notes keep the numbering of the source. Where two headings read alike, the source gives them in different places. Positions of bridges follow the written chain, without caps; N, C: chain ends. Non-standard residues stand in square brackets, D forms with d. Primed or numbered codes have the meaning given here. No end group written: not given here. FAM″ = 5(6)-carboxyfluorescein label; pS = N[C@@H](COP(=O)(O)O)C(=O)O; FAM = 5(6)-carboxyfluorescein; S5 = C=CCCC[C@](C)(N)C(=O)O; PEG3′ = PEG3 linker

Turning to {FAM″}-KESALRK[S5]ELL[S5]EADPAFRDS-NH2 (staple 8-12) [negative control SP TACC3 (F563A & L566A)], binding in [1] was characterised by a dissociation constant (Kd) of 280 µM.
B1: the Kd in test [2] is 39 µM; in [1] it was 5.2 µM.
On to B2, for which the Kd in test [3] was found to be 5.5 µM; in [4] it was 10.1 µM; in test [5] it was 1.3 µM; in test [6] it was 4.4 µM; in test [7], 13 µM; in [8], 1.7 µM. Moreover, the Kd in test [9] is 6.7 µM; in test [10], 9.5 µM; in test [11], 5 µM; in test [12], 22.8 µM; in test [13], 6.3 µM; in test [14] it was 3.3 µM. Further, the Kd in test [15] worked out at 16 µM; in [16], 13 µM; in [17], 1.2 µM; in test [18], 7.1 µM; in test [19], 23.4 µM; in test [20], 6.1 µM. The Kd was 6.5 µM in test [21]; 24.5 µM in test [22]; 15 µM in test [23]; 3.3 µM in test [24]; 16.2 µM in [25]; 1.8 µM in test [26]. For the same molecule, the Kd in [27] was found to be 30 µM; in [28], 2.4 µM; in test [29], 2.8 µM; in [30], 34 µM; in [31], 160 µM; in test [32], 78 µM. Also, the Kd in [33] was determined as 145 µM; in test [34], 74 µM; in [35], 22 µM; in [36], 92 µM; in test [37], 54 µM; in [38] it was 105 µM.
B3: the Kd in test [30] worked out at 3.7 µM; in test [31] it was 19 µM; in test [32], 22 µM; in [33] it was 23 µM; in test [34] it was 44 µM; in test [36] it was 23 µM. Moreover, the Kd in test [37] turned out to be 53 µM; in [38] it was 37 µM.
In test [39], B4 returned a Kd of 2.8 µM and a koff of 0.46 s⁻¹.
As for {FAM-PEG3′}-KESALRK[S5]ELL[S5]EFDPLFRDS (designed binder, staple 8-12) [Opt PEG3 SP TACC3], the Kd in [2] is 0.12 µM; in [1] it was 0.178 µM.
The like results for {FAM″}-KESALRKQELY[S5]KFD[S5]LLRDS-NH2 (staple 12-16) [SP5E] were, in that order, 234 µM and 146 µM.
In test [40], {FAM}-KESALRKQDLYLKFDPLLR [WT TACC3 S558D] gave a Kd of 339 µM.
In test [41], B5 had a koff of 0.04 s⁻¹. Besides, the dissociation constant (Kd) in [2] came to 0.136 µM; in test [1], 0.19 µM; in test [42], 0.03 µM.
Turning to {FAM}-FKESALRKQ[pS]LYLKFDPLLRDS [FAM-pTACC3 CID peptide (aa 549–570), phosphorylated at S558], the koff in test [41] is 1.4 s⁻¹. The figures for the Kd in test [43] and in test [42] were 22 µM and 23 µM, respectively.
{FAM″}-KESALRKQDLY[S5]KFD[S5]LLRDS-NH2 (staple 12-16) [SP5D]: the Kd in test [2] came out at 361 µM; in test [1] it was 152 µM.
